Measured values as given in paper PMC10042849.

Target: EndoS2_(E186L), catalytically inactive EndoS2 (Streptococcus pyogenes (serotype M49)) (UniProt T1WGN1)
Assay: NMR titration; methyl-TROSY (1H,13C HMQC) spectra of MILV methyl-labelled enzyme (45-128 µM) titrated with ligand; 2D lineshape fitting with TITAN, two-state binding model; 20 mM Tris-d11 pH* 7.50, 50 mM NaCl in D2O; 600 MHz, 298 K

Fc region of the IgG1 monoclonal antibody Rituximab (Fc-Rituximab) (from UniProt P01857 1-328) (domain or fragment)
Kd: 3.1 µM
koff: 4 s⁻¹
kon: 1.3e+06 M⁻¹ s⁻¹
